Laboratory results published in patent US6987169.

Biological target: rSK2 small conductance, calcium-activated potassium channel (rat), P70604
Sequence (P70604 whole entry): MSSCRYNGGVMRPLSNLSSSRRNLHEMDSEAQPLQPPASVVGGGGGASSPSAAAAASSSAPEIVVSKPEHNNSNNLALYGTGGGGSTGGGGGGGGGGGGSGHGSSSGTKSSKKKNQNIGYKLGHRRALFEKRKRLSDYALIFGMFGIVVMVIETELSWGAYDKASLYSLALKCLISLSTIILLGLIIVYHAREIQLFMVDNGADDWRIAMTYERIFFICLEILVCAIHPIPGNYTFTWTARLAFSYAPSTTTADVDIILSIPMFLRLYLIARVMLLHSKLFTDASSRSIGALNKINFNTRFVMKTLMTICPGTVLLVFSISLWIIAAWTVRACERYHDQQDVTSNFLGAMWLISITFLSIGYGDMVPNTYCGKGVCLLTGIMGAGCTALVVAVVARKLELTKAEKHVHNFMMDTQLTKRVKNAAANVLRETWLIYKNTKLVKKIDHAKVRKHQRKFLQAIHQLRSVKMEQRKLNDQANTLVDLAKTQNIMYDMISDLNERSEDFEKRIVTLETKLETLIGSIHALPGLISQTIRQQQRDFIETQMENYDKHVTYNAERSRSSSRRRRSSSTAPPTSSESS

B1: apamin, P01500 28-45 (peptide)
peptide: CNCKAPETALCARRCQQH
modifications: not checked
Kd: 63 µM
